The record followed here is patent US20240279318A1 (published 2024).

Assay [1] addresses AFP158 loaded T2 cells (human;, UniProt P61769 21-119). Put plainly: flow cytometry. In general terms: In flow cytometry, cells or beads pass a laser one at a time.
The target in assay [2] is AFP158/HLA-A*02:01 complex. Briefly: SPR. A general note: In SPR one partner is held on a chip, and binding of the other changes the refractive index at the surface.
Assay [3] concerns the target AFP158/HLA-A*02:01 complex. Briefly: SPR; head prints KD(1/s).
In assay [4] the target is A*02:03. Briefly: SPR.
The target of assay [5] is A*02:02. Put plainly: SPR; low fitting confidence.
For assay [6], the target named is A*02:07. Put plainly: SPR; low fitting confidence.
In assay [7] the target is A*02:05. Put plainly: SPR; low fitting confidence.
The target in assay [8] is A*02:11. Briefly: SPR; low fitting confidence.
Assay [9] addresses A*02:06. Put plainly: SPR; low fitting confidence.
In assay [10] the target is A*02:02. Briefly: SPR.
In assay [11] the target is A*02:07. Briefly: SPR.
For assay [12], the target named is A*02:05. Briefly: SPR.
Assay [13] concerns the target A*02:11. Put plainly: SPR.
For assay [14], the target named is A*02:06. Put plainly: SPR.

B1: AS170036 VL1VH1 scFv-mIgG2aFc (Fc fusion)
chain: QSALTQPRSVSGSPGQSVTISCAGTSSDVGSENYVSWYQQHPGKAPKLMIYQVNKRASGVPDRFSGSKSGNTASLTISGLQAEDEADYYCASYRSSDHNIVFGGGTKLTVLGGGGSGGGGSGGGGSEVQLVESGGGLVQPGGSLRLSCAASGFTFSSYAMSWVRQAPGKGLEWVSTINSGTGSPYYADSVKGRFTISRDNSKNTLYLQMNSLRAEDTAVYYCAKNFFDGSWFLGPPAMDYWGQGTLVTVSS
Consider B1, for which, in assay [1], it took 8.79 nM to reach a half-maximal effect (EC50). Besides, the Kd – broadly, the free concentration of one partner at which half of the binding sites on the other are occupied at equilibrium, for simple one-to-one binding – in assay [2] was found to be 256 nM.

B2: AS190259 VL1VH1 scFv-mIgG2aFc (Fc fusion)
chain: SSELTQDPAVSVALGQTVRITCQGGGYYVNWYQQKPGQAPVLVIYLNTNRPSGIPDRFSGSSSGNTASLTITGAQAEDEADYYCQSADSSGNSAVFGGGTKLTVLGGGGSGGGGSGGGGSEVQLVESGGGLVQPGGSLRLSCAASGFTFSSYAMSWVRQAPGKGLEWVSAINSGGGSTYYADSVKGRFTISRDNSKNTLYLQMNSLRAEDTAVYYCAKAASGYGGSWWGDATLDAWGQGTLVTVSS
For B2, the EC50 (as a rule, the concentration giving half of the maximal effect) in assay [1] stood at 3.56 nM. The molecule also gave a Kd in assay [3] of 130 nM.

B3: AS170036 (Fc fusion)
chain: QLVLTQPSSVSGTPGQTVTISCAGTSSDVGSENYVSWYRQLPGTAPKLLIYQVNKRASGIADRFSGSKSGNTASMTISGLQSADEADYYCASYRSSDHNIVFGGGTHLTVLGGGGSGGGGSGGGGSAVQLVESGGGLVQPGGSLRLSCTASGFTFSSYAMSWVRQAPGKGLEWVSTINSGTGSPYYADSVKGRFTISRDNAKNTLYLQLNSLKTEDTAMYYCAKNFFDGSWFLGPPAMDYWGKGTLVTISS
Consider B3, for which the Kd in [4] is 38000 nM; in [5] it was over 5000 nM; in assay [6], over 4800 nM; in assay [7] it was over 100000 nM; in assay [8] it was over 28000 nM; in assay [9] it was over 3100 nM.

B4: AS179723 (Fc fusion)
chain: QAGLTQPPSMSGSPRQSVTISCTGSSNNIGGNYVNWYQHLPGTAPKLLIYDNKNRPSGVPEQISGSKSGSSASLTITGLQAEDEGDYYCASWDDSLSAVVFGGGTHLTVLGGGGSGGGGSGGGGSEVQLVESGGGLVQPGGSLRLSCAASGFTFLNYAMSWVRQAPGKGLEWVSSNSGAGSTYYSDSVKGRFTISRDYAKNVVYLQLNSLKTEDTGMYYCAKGTNVGSWSSLHYWGQGTQVTVSS
B4: the Kd is 32200 nM in assay [10]; 2570 nM in [4]; 1270 nM in [11]; 29000 nM in assay [12]; 297 nM in [13]; 114 nM in assay [14].
